Residue numbers refer to the chain shown, from its start. Names may count otherwise. Read-outs that look alike come from different tables or passages of the source.
Key:
mouse C1q [1] = target: T1, mouse C1q (mouse, UniProt P98086 23-245; P14106 26-253; Q02105 30-246); assay: ELISA, plate coated with BALB/c mouse serum (mouse C1q)
T1 construct: Plates were coated with BALB/c mouse serum as the source of mouse C1q; also called mc1q

mouse FcγRIV = target: T2, mouse FcγRIV (mouse, UniProt A0A0B4J1G0 21-203); assay: ELISA, His-tagged FcγR captured by anti-His antibody
T2 construct: Recombinant His-tagged protein
T2 sequence: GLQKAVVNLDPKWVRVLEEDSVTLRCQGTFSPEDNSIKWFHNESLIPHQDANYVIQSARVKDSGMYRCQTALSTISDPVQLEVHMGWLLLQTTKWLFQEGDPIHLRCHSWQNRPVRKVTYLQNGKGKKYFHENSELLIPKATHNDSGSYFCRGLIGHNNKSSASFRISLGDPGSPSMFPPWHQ

human FcγRIIA (R131) = target: T3, human FcγRIIA (R131) (human, UniProt P12318 34-218, limits assumed); assay: as above
T3 construct: Recombinant His-tagged protein
T3 sequence (looked up): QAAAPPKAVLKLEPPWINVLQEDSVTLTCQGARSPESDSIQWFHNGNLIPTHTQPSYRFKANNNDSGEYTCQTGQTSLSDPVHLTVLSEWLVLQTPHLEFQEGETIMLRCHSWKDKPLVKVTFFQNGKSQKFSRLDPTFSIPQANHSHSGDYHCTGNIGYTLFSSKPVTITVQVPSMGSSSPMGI

human FcγRIIB = target: T4, human FcγRIIB (human, UniProt P31994 43-217, limits assumed); assay: as above
T4 construct: Recombinant His-tagged protein; also called FcγRIIB (human)
T4 sequence (looked up): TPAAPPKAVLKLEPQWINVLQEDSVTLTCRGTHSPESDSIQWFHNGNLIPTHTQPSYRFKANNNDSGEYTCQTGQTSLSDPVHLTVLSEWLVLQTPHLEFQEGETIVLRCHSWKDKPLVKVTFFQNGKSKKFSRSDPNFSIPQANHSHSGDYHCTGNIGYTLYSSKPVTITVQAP

human FcγRIIIA (F158) = target: T5, human FcγRIIIA (F158) (human, UniProt P08637 17-208); assay: as above
T5 construct: Recombinant His-tagged protein

mouse FcγRIIB = target: T6, mouse FcγRIIB (mouse, UniProt P08101 30-210, limits assumed); assay: as above
T6 construct: Recombinant His-tagged protein
T6 sequence (looked up): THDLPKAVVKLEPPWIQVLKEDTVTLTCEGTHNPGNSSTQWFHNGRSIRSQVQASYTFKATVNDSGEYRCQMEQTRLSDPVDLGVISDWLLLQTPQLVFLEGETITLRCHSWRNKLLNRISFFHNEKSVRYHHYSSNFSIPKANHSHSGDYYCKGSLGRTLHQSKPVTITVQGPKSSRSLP

mouse FcγRI = target: T7, mouse FcγRI (mouse, UniProt P26151 25-297); assay: as above
T7 construct: Recombinant His-tagged protein
T7 sequence (looked up): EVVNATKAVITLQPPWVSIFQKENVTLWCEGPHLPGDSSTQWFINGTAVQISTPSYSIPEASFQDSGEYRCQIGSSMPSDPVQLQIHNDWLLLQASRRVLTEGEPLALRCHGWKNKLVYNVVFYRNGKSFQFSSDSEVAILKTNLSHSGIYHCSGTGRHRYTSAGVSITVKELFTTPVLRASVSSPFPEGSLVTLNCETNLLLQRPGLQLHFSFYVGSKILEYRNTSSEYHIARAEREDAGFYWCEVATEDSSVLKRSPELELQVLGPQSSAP

mouse FcγRIII = target: T8, mouse FcγRIII (mouse, UniProt P08508 31-215); assay: as above
T8 construct: Recombinant His-tagged protein
T8 sequence (looked up): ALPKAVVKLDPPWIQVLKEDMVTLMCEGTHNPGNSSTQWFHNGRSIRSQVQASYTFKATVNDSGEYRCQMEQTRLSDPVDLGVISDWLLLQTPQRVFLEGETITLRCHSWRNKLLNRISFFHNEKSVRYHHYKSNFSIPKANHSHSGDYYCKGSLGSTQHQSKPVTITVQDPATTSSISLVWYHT

human FcγRIIA (H131) = target: T9, human FcγRIIA (H131) (human, UniProt P12318 34-218, limits assumed); assay: as above
T9 construct: Recombinant His-tagged protein
T9 sequence (looked up): T3 sequence (looked up) with R134H

human FcγRIIIA (V158) = target: T10, human FcγRIIIA (V158) (human, UniProt P08637 17-208); assay: as above
T10 construct: Recombinant His-tagged protein

human FcγRIA = target: T11, human FcγRIA (human, UniProt P12314 16-288, limits assumed); assay: as above
T11 construct: Recombinant His-tagged protein

human C1q [2] = target: T12, human C1q (human, UniProt P02745 23-245; P02746 28-253; P02747 29-245); assay: ELISA, human C1q-coated plate
T12 construct: Purified human C1q (CompTech); also called hc1q; hC1q

human C1q [3] = target: T12, human C1q; assay: ELISA, human C1q-coated plate; remark: listed apart in the source
mouse C1q [4] = target: T1, mouse C1q; assay: ELISA, plate coated with BALB/c mouse serum (mouse C1q); remark: listed apart in the source

T11 sequence (P12314 16-288 limits assumed): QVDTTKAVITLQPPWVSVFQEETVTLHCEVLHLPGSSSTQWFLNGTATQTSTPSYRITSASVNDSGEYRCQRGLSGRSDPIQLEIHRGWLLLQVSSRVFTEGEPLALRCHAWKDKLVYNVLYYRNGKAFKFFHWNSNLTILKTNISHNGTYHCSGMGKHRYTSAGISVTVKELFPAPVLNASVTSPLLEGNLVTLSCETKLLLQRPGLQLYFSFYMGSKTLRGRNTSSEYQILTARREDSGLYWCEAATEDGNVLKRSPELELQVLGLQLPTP
T1 sequence (P98086 23-245 limits assumed, chain 1 of 3): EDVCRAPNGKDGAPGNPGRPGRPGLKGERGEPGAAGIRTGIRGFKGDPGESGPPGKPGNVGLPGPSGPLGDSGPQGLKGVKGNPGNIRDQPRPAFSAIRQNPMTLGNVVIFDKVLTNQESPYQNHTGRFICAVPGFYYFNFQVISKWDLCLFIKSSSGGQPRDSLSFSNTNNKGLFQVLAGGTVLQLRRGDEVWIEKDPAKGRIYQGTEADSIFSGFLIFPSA
T1 sequence (P14106 26-253 limits assumed, chain 2 of 3): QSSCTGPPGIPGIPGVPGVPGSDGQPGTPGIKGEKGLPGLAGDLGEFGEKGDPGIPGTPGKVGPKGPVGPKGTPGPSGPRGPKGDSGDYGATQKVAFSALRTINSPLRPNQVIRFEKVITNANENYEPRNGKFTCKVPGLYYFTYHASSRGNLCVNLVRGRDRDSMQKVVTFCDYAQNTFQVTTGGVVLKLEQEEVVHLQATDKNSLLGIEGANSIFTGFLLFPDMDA
T1 sequence (Q02105 30-246 limits assumed, chain 3 of 3): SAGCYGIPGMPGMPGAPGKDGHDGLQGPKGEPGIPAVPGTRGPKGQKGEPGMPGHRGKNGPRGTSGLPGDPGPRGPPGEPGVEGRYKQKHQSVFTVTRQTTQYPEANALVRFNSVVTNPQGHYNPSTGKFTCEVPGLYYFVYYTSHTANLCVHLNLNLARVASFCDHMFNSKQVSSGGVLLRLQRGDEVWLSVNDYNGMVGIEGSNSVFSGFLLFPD
T5 sequence (P08637 17-208 limits assumed): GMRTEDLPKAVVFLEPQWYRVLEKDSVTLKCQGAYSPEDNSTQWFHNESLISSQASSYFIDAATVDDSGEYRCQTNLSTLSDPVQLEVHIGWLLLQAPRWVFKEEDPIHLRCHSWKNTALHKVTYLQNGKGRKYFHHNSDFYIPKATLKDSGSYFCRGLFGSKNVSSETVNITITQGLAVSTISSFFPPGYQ
T12 sequence (P02745 23-245 limits assumed, chain 1 of 3): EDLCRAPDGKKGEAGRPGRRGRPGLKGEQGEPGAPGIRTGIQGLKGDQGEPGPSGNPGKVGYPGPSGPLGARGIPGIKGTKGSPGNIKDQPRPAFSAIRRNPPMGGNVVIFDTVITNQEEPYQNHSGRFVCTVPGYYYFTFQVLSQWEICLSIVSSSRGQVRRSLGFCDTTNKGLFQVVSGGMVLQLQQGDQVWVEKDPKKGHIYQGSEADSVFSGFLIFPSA
T12 sequence (P02746 28-253 limits assumed, chain 2 of 3): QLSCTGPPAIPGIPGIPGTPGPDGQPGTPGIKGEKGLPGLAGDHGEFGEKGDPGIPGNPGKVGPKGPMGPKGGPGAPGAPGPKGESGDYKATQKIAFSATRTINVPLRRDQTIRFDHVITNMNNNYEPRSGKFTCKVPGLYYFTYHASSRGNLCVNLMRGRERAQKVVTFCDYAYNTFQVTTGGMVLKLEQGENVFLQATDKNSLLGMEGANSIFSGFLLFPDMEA
T12 sequence (P02747 29-245 limits assumed, chain 3 of 3): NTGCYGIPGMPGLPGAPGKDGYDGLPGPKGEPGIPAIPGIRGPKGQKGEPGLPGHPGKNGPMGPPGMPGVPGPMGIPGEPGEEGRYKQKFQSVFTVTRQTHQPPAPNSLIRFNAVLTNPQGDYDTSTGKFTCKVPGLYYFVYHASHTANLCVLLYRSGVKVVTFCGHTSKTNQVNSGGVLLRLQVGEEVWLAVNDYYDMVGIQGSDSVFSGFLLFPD
T10 sequence (P08637 17-208 F176V limits assumed): as the sequence (P08637 17-208 limits assumed) above, with F160V counted along it

B1: 3F6-hIgG1HEK (antibody)
heavy: not shown
light: DIVLTQSPDSLAVSLGERATINCRASESVEYSGASLMQWYQHKPGQPPKLLIYAASNRESGVPDRFSGSGSGTDFTLTISPVQAEDVAMYFCQQSRKVPSTFGGGTKLEIKRTVAAPSVFIFPPSDEQLKSGTASVVCLLNNFYPREAKVQWKVDNALQSGNSQESVTEQDSKDSTYSLSSTLTLSKADYEKHKVYACEVTHQGLSSPVTKSFNRGEC
modifications: Asn297 N-glycans as made by HEK-293F cells (more G1F, G2F and sialic acid than the CHO product)
notes: also called 3F6-hIgG1HEK WT; 3F6-IgG1
Ka (mouse C1q [1]): 6.08e+07 M⁻¹
Ka (mouse FcγRIV): 1.35e+08 M⁻¹
Ka (human FcγRIIA (R131)): 1.53e+06 M⁻¹
Ka (human FcγRIIB): 925000 M⁻¹
Ka (human FcγRIIIA (F158)): 1.97e+06 M⁻¹
Ka (mouse FcγRIIB): 1.61e+06 M⁻¹
Ka (mouse FcγRI): 1.84e+08 M⁻¹
Ka (mouse FcγRIII): 1.69e+06 M⁻¹
Ka (human FcγRIIA (H131)): 1.13e+06 M⁻¹
Ka (human FcγRIIIA (V158)): 2.31e+07 M⁻¹
Ka (human FcγRIA): 7.88e+08 M⁻¹
Ka (human C1q [2]): 1.87e+07 M⁻¹
Ka (human C1q [3]): 1.87e+07 M⁻¹
Ka (mouse C1q [4]): 6.08e+07 M⁻¹

B2: 3F6-hIgG1CHO (antibody)
heavy: not shown
light: B1 light
modifications: Asn297 N-glycans as made by CHO-DG44 cells (mainly G0F, less G1F and G2F)
notes: Humanized 3F6 human IgG1 produced in CHO-DG44 cells; also called 3F6-hIgG1CHO WT; CHO-produced antibody
Ka (mouse C1q [1]): 8.87e+06 M⁻¹
Ka (mouse FcγRIV): 1.15e+08 M⁻¹
Ka (human FcγRIIA (R131)): 2.36e+06 M⁻¹
Ka (human FcγRIIB): 1.65e+06 M⁻¹
Ka (human FcγRIIIA (F158)): 3.09e+06 M⁻¹
Ka (mouse FcγRIIB): 1.53e+06 M⁻¹
Ka (mouse FcγRI): 1.77e+08 M⁻¹
Ka (mouse FcγRIII): 1.49e+06 M⁻¹
Ka (human FcγRIIA (H131)): 1.75e+06 M⁻¹
Ka (human FcγRIIIA (V158)): 2.75e+07 M⁻¹
Ka (human FcγRIA): 7.66e+08 M⁻¹
Ka (human C1q [2]): 4.91e+06 M⁻¹
Ka (human C1q [3]): 4.91e+06 M⁻¹
Ka (mouse C1q [4]): 8.87e+06 M⁻¹

B3: 3F6-hIgG1HEK-afu (antibody)
heavy: not shown
light: B1 light
modifications: Asn297 N-glycans low in fucose and galactose (HEK-293F cells grown with kifunensine)
notes: See m5; also called afucosylated 3F6-hIgG1HEK
Ka (mouse FcγRIV): 3.19e+08 M⁻¹
Ka (human FcγRIIA (R131)): 1.82e+06 M⁻¹
Ka (human FcγRIIB): 179000 M⁻¹
Ka (human FcγRIIIA (F158)): 9.2e+06 M⁻¹
Ka (mouse FcγRIIB): 1.62e+06 M⁻¹
Ka (mouse FcγRI): 9.2e+07 M⁻¹
Ka (mouse FcγRIII): 2.3e+06 M⁻¹
Ka (human FcγRIIA (H131)): 1.51e+06 M⁻¹
Ka (human FcγRIIIA (V158)): 5.63e+07 M⁻¹
Ka (human FcγRIA): 5.83e+08 M⁻¹
Ka (human C1q [2]): 5.97e+06 M⁻¹
Ka (mouse C1q [4]): 2.79e+06 M⁻¹

B4: 3F6-hIgG1CHO-Gal (antibody)
heavy: not shown
light: B1 light
modifications: Asn297 N-glycans enzymatically galactosylated (β1,4GalT)
notes: 3F6-hIgG1CHO after enzymatic galactosylation; also called 3F6-IgG1CHO-Gal
Ka (human C1q [3]): 2.17e+07 M⁻¹

B5: 3F6-hIgG1HEK-G1F (antibody)
heavy: not shown
light: B1 light
modifications: Asn297 N-glycan remodelled chemoenzymatically to homogeneous G1F
notes: See m5; also called 3F6-hIgGHEK-G1F
Ka (human C1q [3]): 3.83e+07 M⁻¹

B6: 3F6-hIgG1HEK-G2F (antibody)
heavy: not shown
light: B1 light
modifications: Asn297 N-glycan remodelled chemoenzymatically to homogeneous G2F
notes: See m5; also called 3F6-hIgGHEK-G2F
Ka (human C1q [3]): 5.5e+07 M⁻¹

B7: 3F6-hIgG1HEK-deGal (antibody)
heavy: not shown
light: B1 light
modifications: Asn297 N-glycans de-galactosylated with β1-4-galactosidase
notes: See m5
Ka (human C1q [3]): 4e+06 M⁻¹

B8: 3F6-hIgG1HEK-deSia (antibody)
heavy: not shown
light: B1 light
modifications: Asn297 N-glycans de-sialylated with neuraminidase
notes: See m5
Ka (human C1q [3]): 3.37e+07 M⁻¹

B9: 3F6-hIgG1HEK-G0F (antibody)
heavy: not shown
light: B1 light
modifications: Asn297 N-glycan remodelled chemoenzymatically to homogeneous G0F
notes: See m5; also called 3F6-hIgGHEK-G0F
Ka (human C1q [3]): 6.94e+06 M⁻¹

B10: 3F6-hIgG1CHO-G2F (antibody)
heavy: not shown
light: B1 light
modifications: Asn297 N-glycan remodelled chemoenzymatically to homogeneous G2F
notes: Endo-S2 deglycosylation and EndoS2-D184M transfer of G2F glycan; also called 3F6-hIgGCHO-G2F
Ka (human C1q [3]): 5.11e+07 M⁻¹

B11: 3F6-hIgG1CHO-deSia (antibody)
heavy: not shown
light: B1 light
modifications: Asn297 N-glycans de-sialylated with neuraminidase
notes: 3F6-hIgG1CHO after neuraminidase
Ka (human C1q [3]): 5.5e+06 M⁻¹

B12: 3F6-hIgG1HEK-KA (antibody, name in EU numbering)
heavy: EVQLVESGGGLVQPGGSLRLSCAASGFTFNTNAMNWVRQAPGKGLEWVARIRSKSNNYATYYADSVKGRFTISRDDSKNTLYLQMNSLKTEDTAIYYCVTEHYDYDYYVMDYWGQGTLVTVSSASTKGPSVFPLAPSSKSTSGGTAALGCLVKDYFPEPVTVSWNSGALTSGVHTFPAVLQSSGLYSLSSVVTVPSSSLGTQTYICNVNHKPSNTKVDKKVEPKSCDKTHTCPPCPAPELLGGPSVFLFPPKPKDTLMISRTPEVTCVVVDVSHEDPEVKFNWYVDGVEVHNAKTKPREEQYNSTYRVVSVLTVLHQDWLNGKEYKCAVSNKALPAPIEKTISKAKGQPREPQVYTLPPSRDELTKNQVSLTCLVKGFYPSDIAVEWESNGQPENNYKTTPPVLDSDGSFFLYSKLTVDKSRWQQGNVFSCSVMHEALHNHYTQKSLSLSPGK
light: B1 light
notes: also called KA variant
Ka (mouse FcγRIV): 2.66e+08 M⁻¹
Ka (human FcγRIIA (R131)): 1.81e+06 M⁻¹
Ka (human FcγRIIB): 1.18e+06 M⁻¹
Ka (human FcγRIIIA (F158)): 1.51e+06 M⁻¹
Ka (mouse FcγRIIB): 3.35e+06 M⁻¹
Ka (mouse FcγRI): 3.97e+08 M⁻¹
Ka (mouse FcγRIII): 2.96e+06 M⁻¹
Ka (human FcγRIIA (H131)): 1.23e+06 M⁻¹
Ka (human FcγRIIIA (V158)): 1.4e+07 M⁻¹
Ka (human FcγRIA): 7.86e+08 M⁻¹
Ka (human C1q [2]): 1.37e+06 M⁻¹
Ka (mouse C1q [4]): 1.34e+06 M⁻¹
